Columns and labels:
[1] = test system: Macaca fascicularis PRLR (mfPRLR.mmh; SEQ ID NO:403); test: Surface plasmon resonance (Biacore T200), antibody-capture format; assay type: binding; conditions: analyte mfPRLR.mmh
Method in brief: (§1)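 Antibodies (human IgG1 Fc) captured on an anti-human Fc sensor surface; soluble monomeric (.mmh) or dimeric (.mFc) PRLR injected as analyte. ka and kd obtained by fitting to a 1:1 binding model.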

[2] = biological target: T1, dimeric human PRLR (hPRLR.mFc; SEQ ID NO:402) (Homo sapiens, UniProt P16471); test: as above; assay type: binding; conditions: analyte hPRLR.mFc
T1 construct: dimeric (hPRLR.mFc)
Method in brief: as §1

[3] = biological target: T2, monomeric human PRLR (hPRLR.mmh; SEQ ID NO:401) (Homo sapiens, UniProt P16471); test: as above; assay type: binding; conditions: analyte hPRLR.mmh
T2 construct: soluble monomeric (hPRLR.mmh); mmh (myc-myc-hexahistidine) (C)
Method in brief: as §1

[4] = biological target: T3, native PRLR expressing T47D cells (Homo sapiens, UniProt P16471); test: FACS cell surface binding
T3 construct: a native PRLR expressing cell line (T47D); endogenous in cells; host or cells: T47D
T3 sequence (P16471 25-622): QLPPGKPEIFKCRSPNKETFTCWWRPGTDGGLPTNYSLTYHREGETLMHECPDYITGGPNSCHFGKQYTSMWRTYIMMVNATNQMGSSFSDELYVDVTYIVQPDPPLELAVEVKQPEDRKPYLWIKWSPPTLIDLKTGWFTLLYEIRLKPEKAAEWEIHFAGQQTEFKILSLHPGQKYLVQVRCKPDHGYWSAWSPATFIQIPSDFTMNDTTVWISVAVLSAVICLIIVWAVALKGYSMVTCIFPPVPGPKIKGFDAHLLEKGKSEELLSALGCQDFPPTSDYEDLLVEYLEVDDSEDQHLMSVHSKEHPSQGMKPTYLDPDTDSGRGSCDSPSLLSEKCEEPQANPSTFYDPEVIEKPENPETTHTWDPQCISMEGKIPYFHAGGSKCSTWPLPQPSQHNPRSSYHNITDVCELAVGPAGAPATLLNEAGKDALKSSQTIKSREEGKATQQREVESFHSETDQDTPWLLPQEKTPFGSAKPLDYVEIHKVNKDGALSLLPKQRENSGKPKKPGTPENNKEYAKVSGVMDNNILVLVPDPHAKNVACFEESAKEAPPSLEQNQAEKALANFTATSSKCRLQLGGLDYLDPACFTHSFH
Method in brief: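 Binding expressed as mean fluorescence fold change above isotype background, measured by FACS after 30 min on ice with 10 μg/ml antibody and PE-conjugated anti-human detection. T47D, which natively expresses PRLR, tested with engineered HEK293/hPRLR and non-expressing HEK293 cells.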

[5] = test system: MCF7/PRLR tumors; test: MCF7/PRLR breast cancer xenograft, tumor size and tumor growth inhibition; assay type: in vivo, NCr nude mice
Method in brief: (§2)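 MCF7/PRLR cells in mammary fat pad of female NCr nude mice, PC3/PRLR in flank of male SCID, T47D #11 in flank of female CB17 SCID, all with estrogen pellets.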

[6] = test system: PC3/PRLR tumors; test: PC3/PRLR xenograft, tumor size and tumor growth inhibition; assay type: in vivo, SCID mice; conditions: SCID mice, multi-dose 15 mg/kg
Method in brief: as §2

[7] = MCF7/PRLR tumors TRIAL #1, NCr Nude mice, multi-dose 15 mg/kg, Day 52
[8] = MCF7/PRLR tumors TRIAL #2, NCr Nude mice, multi-dose 15 mg/kg, Day 63
[9] = PC3/PRLR tumors TRIAL #1, Day 63
[10] = PC3/PRLR tumors TRIAL #2, Day 55

T2 sequence (P16471 with tags, fused parts or gaps): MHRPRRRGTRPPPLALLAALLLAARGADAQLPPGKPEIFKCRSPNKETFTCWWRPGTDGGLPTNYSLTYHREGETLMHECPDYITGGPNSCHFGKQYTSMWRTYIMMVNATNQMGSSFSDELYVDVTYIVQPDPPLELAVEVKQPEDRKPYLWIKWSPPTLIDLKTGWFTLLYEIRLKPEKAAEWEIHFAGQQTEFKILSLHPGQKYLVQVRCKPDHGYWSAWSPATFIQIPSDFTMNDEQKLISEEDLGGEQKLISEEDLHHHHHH
Chain of Macaca fascicularis PRLR (mfPRLR.mmh; SEQ ID NO:403) (as listed by the source): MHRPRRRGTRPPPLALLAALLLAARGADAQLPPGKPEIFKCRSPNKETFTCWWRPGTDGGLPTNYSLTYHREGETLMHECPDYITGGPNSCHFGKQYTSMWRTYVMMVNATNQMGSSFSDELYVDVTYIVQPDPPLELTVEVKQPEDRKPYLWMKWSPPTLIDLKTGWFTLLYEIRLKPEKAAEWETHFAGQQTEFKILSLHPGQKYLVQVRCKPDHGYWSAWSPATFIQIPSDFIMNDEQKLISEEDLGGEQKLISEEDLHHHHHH
T1 sequence (P16471 with tags, fused parts or gaps): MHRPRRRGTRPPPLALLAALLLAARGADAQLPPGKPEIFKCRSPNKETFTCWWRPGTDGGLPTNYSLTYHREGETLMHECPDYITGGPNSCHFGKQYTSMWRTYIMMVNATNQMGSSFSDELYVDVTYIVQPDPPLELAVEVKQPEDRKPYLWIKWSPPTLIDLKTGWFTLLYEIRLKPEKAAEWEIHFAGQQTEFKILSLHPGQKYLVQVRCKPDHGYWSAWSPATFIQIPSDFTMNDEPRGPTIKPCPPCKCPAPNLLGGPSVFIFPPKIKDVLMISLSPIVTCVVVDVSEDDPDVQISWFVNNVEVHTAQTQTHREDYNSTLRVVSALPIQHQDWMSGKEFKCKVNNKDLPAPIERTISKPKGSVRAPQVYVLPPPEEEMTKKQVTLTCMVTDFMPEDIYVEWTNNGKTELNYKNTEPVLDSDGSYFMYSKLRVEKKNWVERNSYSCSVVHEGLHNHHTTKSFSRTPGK

B1: H1H6958N2: anti-PRLR antibody, receptor blocking, human IgG1 Fc form of H2M6958N2 of Table 1; HCVR/LCVR SEQ ID NOs 290/298 (antibody, V domains shown)
VH: QVQLVESGGGVVQPGRSLRLSCGASGFTFRNYGMQWVRQGPGKGLEWVTLISFDGNDKYYADSVKGRFTISRDNSKNTLFLQMNSLRTEDTAVYYCARGGDFDYWGQGTLVTVSS
VL: DIQMTQSPSSLSASVGDRVTITCRASQDIRKDLGWYQQKPGKAPKRLIYAASSLHSGVPSRFSGSGSGTEFTLTISSLQPEDFATYYCLQHNSYPMYTFGQGTKLEIK
ka ([1]; 25° C.): 195000 M/s | kd ([1]; 25° C.): 0.00028 s⁻¹ | ka ([1]; 37° C.): 328000 M/s | kd ([1]; 37° C.): 0.00134 s⁻¹ | ka ([2]; 25° C.): 422000 M/s | kd ([2]; 25° C.): 3.66e-05 s⁻¹ | ka ([2]; 37° C.): 829000 M/s | kd ([2]; 37° C.): 0.000139 s⁻¹ | ka ([3]; 25° C.): 233000 M/s | kd ([3]; 25° C.): 0.000272 s⁻¹ | ka ([3]; 37° C.): 413000 M/s | kd ([3]; 37° C.): 0.00131 s⁻¹ | FACS Cell Binding [4]: 37 Fold Above Background | Average Tumor Growth Inhibition (%) [5, 7]: 74% | Final Tumor size mm^3 (mean ± SEM) [5, 7]: 483 ± 46 mm^3 | Average Tumor Growth Inhibition (%) [5, 8]: 17% | Final Tumor size mm^3 (mean ± SEM) [5, 8]: 766 ± 128 mm^3 | Final Tumor size mm^3 (mean ± SEM) ([5]; MCF7/PRLR tumors, single dose 15 mg/kg, Day 55): 703 ± 160 mm^3 | Average Tumor Growth Inhibition (%) [6, 9]: −19% | Final Tumor size mm^3 (mean ± SEM) [6, 9]: 1507 ± 106 mm^3 | Average Tumor Growth Inhibition (%) [6, 10]: 28% | Final Tumor size mm^3 (mean ± SEM) [6, 10]: 917 ± 253 mm^3

B2: H1H6975N: anti-PRLR antibody, human IgG1 Fc form of H2M6975N of Table 1; HCVR/LCVR SEQ ID NOs 370/378 (antibody, V domains shown)
VH: EVHLVESGGGLVQPGGSLRLSCAASGFTFSSYEMNWVRQTPGKGLEWISHISSRSVIIYYADSVKGRFTISRDNAKNSLFLQMNSLRAEDTAVYFCAGITIFGIPEYWGQGTLVTVSS
VL: EIVLTQSPATLSLSPGERATLSCRASQSVSSYFAWYQQKPGQAPRLLIYDASSRATGIPTRFSGSGSGTDFTLTISSLEPEDFAVYYCQQRSSWPITFGQGTRLEIK
modifications: human IgG1 Fc
ka ([1]; 25° C.): 115000 M/s | kd ([1]; 25° C.): 0.000131 s⁻¹ | ka ([1]; 37° C.): 140000 M/s | kd ([1]; 37° C.): 0.000317 s⁻¹ | ka ([2]; 25° C.): 287000 M/s | kd ([2]; 25° C.): 1.97e-05 s⁻¹ | ka ([2]; 37° C.): 386000 M/s | kd ([2]; 37° C.): 7.09e-05 s⁻¹ | ka ([3]; 25° C.): 150000 M/s | kd ([3]; 25° C.): 7.35e-05 s⁻¹ | ka ([3]; 37° C.): 211000 M/s | kd ([3]; 37° C.): 0.000273 s⁻¹ | FACS Cell Binding [4]: 46 Fold Above Background | Average Tumor Growth Inhibition (%) [5, 7]: 51% | Final Tumor size mm^3 (mean ± SEM) [5, 7]: 659 ± 144 mm^3 | Average Tumor Growth Inhibition (%) [6, 9]: 12% | Final Tumor size mm^3 (mean ± SEM) [6, 9]: 1185 ± 97 mm^3

B3: H1H6765P: fully human anti-PRLR antibody, human IgG1 Fc; HCVR/LCVR SEQ ID NOs 18/26 (antibody, V domains shown)
VH: EVQLVESGGGVVRPGGSLRLSCVGSGFSFDDHGMNWVRQGPGKGLEWVSGFNWNGGSTNYAESVKGRFTISRDNARNSLFLQMNSLRAEDTALYYCVRGRSGWFNDAFDVWGPGTMVTVSS
VL: EIVLTQSPGTLSLSPGERATLSCRASQTINSNYLAWYRQKPGQTPRLLIYGTSSRATGIPDRFSGSGSGTDFSLTISRLEPEDFAVFYCQQYAGLPTFGPGTKVDIK
ka ([1]; 25° C.): 527000 M/s | kd ([1]; 25° C.): 0.000134 s⁻¹ | ka ([1]; 37° C.): 1.06e+06 M/s | kd ([1]; 37° C.): 5.37e-05 s⁻¹ | ka ([2]; 25° C.): 869000 M/s | kd ([2]; 25° C.): 3.41e-05 s⁻¹ | ka ([2]; 37° C.): 801000 M/s | kd ([2]; 37° C.): 0.000103 s⁻¹ | ka ([3]; 25° C.): 907000 M/s | kd ([3]; 25° C.): 0.000113 s⁻¹ | ka ([3]; 37° C.): 1.25e+06 M/s | kd ([3]; 37° C.): 0.000366 s⁻¹ | FACS Cell Binding [4]: 40 Fold Above Background | Average Tumor Growth Inhibition (%) [5, 8]: 19% | Final Tumor size mm^3 (mean ± SEM) [5, 8]: 737 ± 182 mm^3 | Final Tumor size mm^3 (mean ± SEM) [6, 10]: 1208 ± 72 mm^3

B4: H1H6774P: fully human anti-PRLR antibody, human IgG1 Fc; HCVR/LCVR SEQ ID NOs 34/42 (antibody, V domains shown)
VH: EVQLVESGGGLAQPGGSLRLSCVASGFTFSTYWMSWVRQAPGKGLDWVGNIKQDGSEQNYVDSVRGRFTISRDNAKNSLFLQMNSLRAEDTGVYYCATLLTKGDYWGQGTLVTVSS
VL: DIQMTQSPSSLSASVGDSVTITCRASQDISNYLDWFQQKPGKAPKSLIYAASILQGGVPSRFSGSGYGTDFTLTISSLQPEDFATYYCRQYKTYPFTFGPGTKVDIK
ka ([1]; 25° C.): 495000 M/s | kd ([1]; 25° C.): 0.000875 s⁻¹ | ka ([1]; 37° C.): 723000 M/s | kd ([1]; 37° C.): 0.00361 s⁻¹ | ka ([2]; 25° C.): 798000 M/s | kd ([2]; 25° C.): 8.94e-05 s⁻¹ | ka ([2]; 37° C.): 1.41e+06 M/s | kd ([2]; 37° C.): 0.000194 s⁻¹ | ka ([3]; 25° C.): 715000 M/s | kd ([3]; 25° C.): 0.000818 s⁻¹ | ka ([3]; 37° C.): 1.07e+06 M/s | kd ([3]; 37° C.): 0.00317 s⁻¹ | FACS Cell Binding [4]: 39 Fold Above Background

B5: H1H6795P: fully human anti-PRLR antibody, human IgG1 Fc; HCVR/LCVR SEQ ID NOs 162/170 (antibody, V domains shown)
VH: QVQLVQSGAEVKKPGASVKVSCKASGYTFGTSGITWVRQAPGQGLEWMGWSSAYNGKTDYAQKFQDRVTMTTDTSTTTGYMEMRSLTSDDTAVYYCTTVVRRPFDFWGQGTLVTVSS
VL: DIQMTQSPSSLSASVGDRVTITCRASQDINNFLAWFQQKPGKAPKSLIYAASSLQSGVPSKFSGGGSGTDFALTISSLQPEDFATYYCQQYSSYPITFGQGTRLEIK
ka ([1]; 25° C.): 844000 M/s | kd ([1]; 25° C.): 0.00197 s⁻¹ | ka ([1]; 37° C.): 973000 M/s | kd ([1]; 37° C.): 0.00599 s⁻¹ | ka ([2]; 25° C.): 1.54e+06 M/s | kd ([2]; 25° C.): 8.41e-05 s⁻¹ | ka ([2]; 37° C.): 1.94e+06 M/s | kd ([2]; 37° C.): 7.77e-05 s⁻¹ | ka ([3]; 25° C.): 1.17e+06 M/s | kd ([3]; 25° C.): 0.00177 s⁻¹ | ka ([3]; 37° C.): 1.36e+06 M/s | kd ([3]; 37° C.): 0.0052 s⁻¹ | FACS Cell Binding [4]: 34 Fold Above Background

B6: H1H6797P: fully human anti-PRLR antibody, human IgG1 Fc; HCVR/LCVR SEQ ID NOs 178/186 (antibody, V domains shown)
VH: EVQLVESGGGLVQPGGSLRLSCIVSGFTFSGSWMSWVRQLPGKGLEWVANIKEDGSDSYYVDSVEGRFTISRDNAKSSLYLQMNSLRVDDTAVYFCARARTVPLHYWGQGTLVTVSS
VL: DIQMTQSPSTLSASVGDRVTITCRASQSINIWLAWYQQKPGKAPKLLIYRASYLESGVPSSFAGGGSGTEFTLTISSLQPDDFGTYYCQHYNSYPFTFGQGTKLEIK
ka ([1]; 25° C.): 670000 M/s | kd ([1]; 25° C.): 0.00209 s⁻¹ | ka ([1]; 37° C.): 914000 M/s | kd ([1]; 37° C.): 0.00906 s⁻¹ | ka ([2]; 25° C.): 982000 M/s | kd ([2]; 25° C.): 0.000119 s⁻¹ | ka ([2]; 37° C.): 1.8e+06 M/s | kd ([2]; 37° C.): 0.000125 s⁻¹ | ka ([3]; 25° C.): 1.13e+06 M/s | kd ([3]; 25° C.): 0.00196 s⁻¹ | ka ([3]; 37° C.): 1.29e+06 M/s | kd ([3]; 37° C.): 0.00822 s⁻¹ | FACS Cell Binding [4]: 38 Fold Above Background

— patent US10925971B2, “Methods of treating PRLR positive breast cancer” (Regeneron Pharmaceuticals, Inc., priority 2016, dated 2021)
